Assay results from patent US7345026 (INSTITUT PASTEUR, dated 2008).

Target: T1, HLA-A2.1 molecules on T2 (TAP-, HLA-A2.1+) cells (human)
T1 construct: MHC class I molecule to which peptides were added from outside; Surface HLA-A2.1 was detected with mAb BB7.2; also called H.A.-A2.1
Assay: T2 cells, peptide binding by surface HLA-A2.1 (BB7.2) flow cytometry; ratio of concentrations reaching 20% of maximal binding

Row | Binder | RA (relative affinity)
1 | VLYRYGSFSV (synthetic peptide) [gp100 476-485 epitopic peptide] | 10 ratio to HIV 1 rt.476 reference peptide
2 | LLDGTATLRL (synthetic peptide) [gp100 457-466 epitopic peptide] | 1.65 ratio to HIV 1 rt.476 reference peptide
3 | YMDGTMSQV (synthetic peptide; also called Tyrosinase.368-D) [Tyrosinase 368-376-D epitopic peptide] | 2.27 ratio to HIV 1 rt.476 reference peptide
4 | ILTVILGVL (synthetic peptide) [Melan-A/MART-1 32-40 epitopic peptide] | 21.1 ratio to HIV 1 rt.476 reference peptide
5 | MLLAVLYCL (synthetic peptide) [Tyrosinase 1-9 epitopic peptide] | > 60 ratio to HIV 1 rt.476 reference peptide
